Changes are numbered by the printed parent chain. Names and notes keep the numbering of the source. Square brackets hold non-standard residues; d marks the D form. Ends that are not written are not given here. Lys(Me2) = CN(C)CCCC[C@H](N)C(=O)O

The target in assay [1] is T1, CHD1aa270-443 (UniProt O14646 270-443).
T1 construct: Recombinant fragment; also called CHD1 double chromodomain fragment
T1 sequence (looked up): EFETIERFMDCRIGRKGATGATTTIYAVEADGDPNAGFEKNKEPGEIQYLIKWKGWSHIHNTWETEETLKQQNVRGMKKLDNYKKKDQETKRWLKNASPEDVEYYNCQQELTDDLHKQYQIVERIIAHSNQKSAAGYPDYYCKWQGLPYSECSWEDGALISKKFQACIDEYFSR
In words: isothermal titration calorimetry (data not shown).

The target in assay [2] is T2, CHD1 D425A (UniProt O14646 270-443, limits assumed).
T2 construct: also called D425A mutation in CHD1
T2 sequence (looked up): T1 sequence (looked up) with D156A
In words: isothermal titration calorimetry (data not shown).

Assay [3] concerns the target T3, Flag-LSD1 K114A (UniProt O60341 1-852, limits assumed).
T3 construct: Obtained by site directed mutagenesis of Flag-LSD1; not shown: Flag tag
In words: co-immunoprecipitation with anti-Flag antibody from transfected 293T cells without G9A, Western blot decorated with anti-CHD1. (In general: Immunoblotting shows a protein as a band on a membrane.)

The target of assay [4] is T1, CHD1aa270-443. The assay can be described thus: co-crystal structure of the CHD1 double chromodomain with the LSD1 K114me2 peptide.
Protocol: Crystals (space group P21212) were grown by sitting drop vapour diffusion at 4° C. in buffer containing 100 mM Hepes pH 7.5, 0.2 M L-proline, 10% (w/v) PEG3350. Prior to flash cooling in liquid nitrogen, crystals were cryoprotected in reservoir solution with 20% (v/v) ethylene glycol. Initial X-ray diffraction data were collected at the PXI beamline at the Swiss Light Source at 1=1.000 Å with a Pilatus detector. […] Data were processed and analyzed with XDS28 and Aimless²⁹. The structure was solved by molecular replacement with Phaser³⁰ using 2B2W as a search model. Manual building and refinement were performed using Coot31 and Refmac532 in the CCP4 program suite³³.

B1: LSD1 K114me2 peptide with R113 mutated to alanine (peptide, UniProt O60341 104-127, looked up)
peptide: TPEGRRTSRA[Lys(Me2)]RAKVEYREMDESL
notes: also called LSD1 R113A K114me2 peptide
For B1, in assay [1], the binding result is “no binding”.

B2: LSD1aa104-127 K114me2 peptide (peptide, UniProt O60341 104-127, looked up)
peptide: TPEGRRTSRR[Lys(Me2)]RAKVEYREMDESL
notes: range 104-127; Synthetic peptide, used on the microarray and in ITC; also called LSD1 K114me2 peptide; dimethylated LSD1 peptide
On to B2, for which the binding result in assay [2] is “no binding”.

B3: endogenous CHD1 (enzyme, human, UniProt O14646 1-1710, looked up)
chain: MNGHSDEESVRNSSGESSQSDDDSGSASGSGSGSSSGSSSDGSSSQSGSSDSDSGSESGSQSESESDTSRENKVQAKPPKVDGAEFWKSSPSILAVQRSAILKKQQQQQQQQQHQASSNSGSEEDSSSSEDSDDSSSEVKRKKHKDEDWQMSGSGSPSQSGSDSESEEEREKSSCDETESDYEPKNKVKSRKPQNRSKSKNGKKILGQKKRQIDSSEEDDDEEDYDNDKRSSRRQATVNVSYKEDEEMKTDSDDLLEVCGEDVPQPEEEEFETIERFMDCRIGRKGATGATTTIYAVEADGDPNAGFEKNKEPGEIQYLIKWKGWSHIHNTWETEETLKQQNVRGMKKLDNYKKKDQETKRWLKNASPEDVEYYNCQQELTDDLHKQYQIVERIIAHSNQKSAAGYPDYYCKWQGLPYSECSWEDGALISKKFQACIDEYFSRNQSKTTPFKDCKVLKQRPRFVALKKQPSYIGGHEGLELRDYQLNGLNWLAHSWCKGNSCILADEMGLGKTIQTISFLNYLFHEHQLYGPFLLVVPLSTLTSWQREIQTWASQMNAVVYLGDINSRNMIRTHEWTHHQTKRLKFNILLTTYEILLKDKAFLGGLNWAFIGVDEAHRLKNDDSLLYKTLIDFKSNHRLLITGTPLQNSLKELWSLLHFIMPEKFSSWEDFEEEHGKGREYGYASLHKELEPFLLRRVKKDVEKSLPAKVEQILRMEMSALQKQYYKWILTRNYKALSKGSKGSTSGFLNIMMELKKCCNHCYLIKPPDNNEFYNKQEALQHLIRSSGKLILLDKLLIRLRERGNRVLIFSQMVRMLDILAEYLKYRQFPFQRLDGSIKGELRKQALDHFNAEGSEDFCFLLSTRAGGLGINLASADTVVIFDSDWNPQNDLQAQARAHRIGQKKQVNIYRLVTKGSVEEDILERAKKKMVLDHLVIQRMDTTGKTVLHTGSAPSSSTPFNKEELSAILKFGAEELFKEPEGEEQEPQEMDIDEILKRAETHENEPGPLTVGDELLSQFKVANFSNMDEDDIELEPERNSKNWEEIIPEDQRRRLEEEERQKELEEIYMLPRMRNCAKQISFNGSEGRRSRSRRYSGSDSDSISEGKRPKKRGRPRTIPRENIKGFSDAEIRRFIKSYKKFGGPLERLDAIARDAELVDKSETDLRRLGELVHNGCIKALKDSSSGTERTGGRLGKVKGPTFRISGVQVNAKLVISHEEELIPLHKSIPSDPEERKQYTIPCHTKAAHFDIDWGKEDDSNLLIGIYEYGYGSWEMIKMDPDLSLTHKILPDDPDKKPQAKQLQTRADYLIKLLSRDLAKKEALSGAGSSKRRKARAKKNKAMKSIKVKEEIKSDSSPLPSEKSDEDDDKLSESKSDGRERSKKSSVSDAPVHITASGEPVPISEESEELDQKTFSICKERMRPVKAALKQLDRPEKGLSEREQLEHTRQCLIKIGDHITECLKEYTNPEQIKQWRKNLWIFVSKFTEFDARKLHKLYKHAIKKRQESQQNSDQNSNLNPHVIRNPDVERLKENTNHDDSSRDSYSSDRHLTQYHDHHKDRHQGDSYKKSDSRKRPYSSFSNGKDHRDWDHYKQDSRYYSDREKHRKLDDHRSRDHRSNLEGSLKDRSHSDHRSHSDHRLHSDHRSSSEYTHHKSSRDYRYHSDWQMDHRASSSGPRSPLDQRSPYGSRSPFEHSVEHKSTPEHTWSSRKT
notes: Endogenous protein in cell extracts; also called endogenously expressed CHD1
For the molecule B3, the binding result in assay [3] is recorded as “no binding”.

B4: LSD1aa108-119 K114me2 peptide (peptide, UniProt O60341 108-119, looked up)
peptide: RRTSRR[Lys(Me2)]RAKVE
notes: range 108-119; Peptide used for co-crystallisation; only residues 110-116 were modelled in the electron density; also called LSD1aa110-116 K114me2 (residues modelled in the structure); LSD1 K114me2 peptide
For B4, in assay [4], the binding result is recorded as “binds”.

Values taken from patent US20180036256A1 (ALBERT LUDWIGS UNIVERSIT T FREIBURG, published 2018).
